Results: patent publication US20240075098A1

Target: DTR

## Diphtheria toxin (from UniProt P00588)
  death of cochlea outer hair cells in Prestin-P2A-DTR/+ mice after DT at P36: > 90%
